Results from patent US20220195047A1 (TCRCURE BIOPHARMA, published 2022).

Assays:
[1] = target: T1, human PD-1 protein (hPD-1) on cell surface of 293T-PD-1 cells (human, UniProt Q15116 25-287); test: flow cytometry on 293T-PD-1 cells
T1 construct: Human PD-1 expressed in HEK293T cells, either by lentiviral transduction or by the pCMV6-ENTRY PDCD1 cDNA RC210364; also called PDCD1 (RC210364) in HEK293T cells
Protocol: (§1) The cells were then stained with a secondary antibody (APC-anti-Hu IgG Fc for humanized antibodies and FITC-anti-Mouse IgG F(ab′)2 for F02) for 30 minutes (1:50), followed by flow cytometric analysis. The results were analyzed through Prism 7 and Kd values were determined by the program.

[2] = target: T1, human PD-1 protein (hPD-1) on cell …; test: flow cytometry on 293T-PD-1 cells, 4 C for 60 min, secondary APC-anti-Hu IgG Fc; y axis hPD-1%
Protocol: as §1

[3] = target: T2, recombinant biotinylated human PD-1 (human, UniProt Q15116 25-170, limits assumed, biotinylated (site not stated)); test: ELISA, antibody coated, biotinylated rhPD-1 titrated, Sav-HRP detection
T2 construct: also called rhPD-1; recombinant human PD-1 protein
T2 sequence (Q15116 25-170 limits assumed): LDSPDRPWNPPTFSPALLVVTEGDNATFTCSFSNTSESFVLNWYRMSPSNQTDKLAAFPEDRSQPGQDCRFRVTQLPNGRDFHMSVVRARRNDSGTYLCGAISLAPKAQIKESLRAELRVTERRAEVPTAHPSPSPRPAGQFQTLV
Protocol: 5 μg/ml of anti-PD1 antibody in 100 μl coating buffer was coated in the microwells at 4° C. overnight. By following the ELISA procedure, a 5-fold serial dilution of recombinant biotinylated human PD-1 was added to the assay plate pre-coated with anti-PD1 antibodies. The bound human PD-1 protein was then detected with Sav-HRP reagent. The results were analyzed through Prism 7 and Kd values were determined by the program.

[4] = target: T1, human PD-1 protein (hPD-1) on cell …; test: flow cytometry on 293T-PD-1 cells, 4 C for 60 min, secondary FITC-anti-Mouse IgG F(ab')2; y axis hPD-1%
Protocol: as §1

T1 sequence (Q15116 25-287 limits assumed): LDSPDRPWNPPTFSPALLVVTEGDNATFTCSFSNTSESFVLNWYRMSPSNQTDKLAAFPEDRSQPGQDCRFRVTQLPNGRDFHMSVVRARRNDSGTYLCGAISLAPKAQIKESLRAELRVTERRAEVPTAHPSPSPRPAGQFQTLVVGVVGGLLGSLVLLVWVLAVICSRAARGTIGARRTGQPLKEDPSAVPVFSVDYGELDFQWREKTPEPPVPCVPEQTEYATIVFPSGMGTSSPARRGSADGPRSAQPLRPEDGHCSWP

Kd [1]	EC50 (read off the curve) [2]	Kd [3]	EC50 (read off the curve) [4]	Binder
0.55 nM	~0.07 µg/mL	0.29 nM		h11 anti-PD-1 antibody (antibody, V domains shown, Humanized antibody derived from F02, detected with anti-human IgG Fc; also called hl 1) VH: QVQLVQSGAEVKKPGASVKVSCKASGYTFTNYYMYWVRQAPGQGLEWIGGINPSNGGTNFNEKFKNKATMTVDKSTSTAYMELSSLRSEDTAVYYCTRRDYNYDGGFDYWGQGTLVTVSS VL: DIVLTQSPATLSLSPGERATLSCRASKSVSTSGFNYMHWYQQKPGQAPRLLIFLASNLASGVPARFSGSGSGTDFTLTISSLEPEDFAVYYCQHGRELPLTFGQGTKLEI
0.07 nM		0.14 nM	~0.01 µg/mL	F02 anti-PD-1 antibody (antibody, V domains shown, Mouse monoclonal antibody from hybridoma clone #11, detected with anti-mouse IgG F(ab')2; Only the variable domains are tied to F02; also called anti-PD-1 antibody from hybridoma clone #11; clone #11) VH: QQPGAELVKPGASVKLSCRASGYTFTNYYLYWVKQRPGQGLEWIGGINPSNGGTNFNEKFRGKATLTVDKSSSTAYMQLSSLTSEDSAVYFCTRRDYNYDGGFDYWGQGSTLTVSS VL: DIVLTQSPASLAVSLGQRATISCRASKSVSTSGFNYMHWYQQKPGQPPKLLIYLASNLDSGVPARFSGSGSGTDFTLNIHPVEEEDAATYYCQHGRELPLTFGAGTKLELRR
3.69 nM	~0.5 µg/mL			Ab5 anti-PD-1 antibody (antibody, V domains shown, Humanized antibody, detected with anti-human IgG Fc) VH: QVQLQQSGAEVKKPGSSVKVSCKASGYTFTNYYLYWVRQAPGQGLEWIGGINPSNGGTNFNEKFRGRVTITADESSTTAYMELSSLRSEDTAFYFCTRRDYNYDGGFDYWGQGTTVTVSS VL: DIVMTQSPSSLSASVGDRVTITCRASKSVSTSGFNYMHWYQQTPGKAPKLLIYLASNLDSGVPARFSGSGSGTDFTFTISSLQEEDIATYYCFHGRELPLTFGQGTKLQITR
41 nM	~3 µg/mL			Ab4 anti-PD-1 antibody (antibody, V domains shown, Humanized antibody, detected with anti-human IgG Fc) VH: QVQLQQSGAEVKKPGSSVKVSCKASGYTFTNYYLYWVRQAPGQGLEWIGGINPSNGGTNFNEKFRGRVTITADESSTTAYMELSSLRSEDTAFYFCTRRDYNYDGGFDYWGQGTTVTVSS VL: DIQMTQSPSSLSASVGDRVTITCRASKSVSTSGFNYMHWYQQTPGKAPKLLIYLASNLDSGVPARFSGSGSGTDFTFTISSLQEEDIATYYCFHGRELPLTFGQGTKLQITR
0.65 nM	~0.1 µg/mL	0.32 nM		Ab8 anti-PD-1 antibody (antibody, V domains shown, Humanized antibody, detected with anti-human IgG Fc) VH: EVQLQESGAEVKKPGSSVKVSCKASGYTFTNYYLYWVRQAPGQGLEWMGGINPSNGGTNFNEKFRGRVTITADESTSTAYMELSSLRSEDTAVYYCARRDYNYDGGFDYWGQGTTVTVSS VL: DIVMTQSPDSLAVSLGERATINCRASKSVSTSGFNYMHWYQQKPGQPPKLLIYLASNLDSGVPDRFSGSGSGTDFTLTIRPLQAEDVAVYYCQHGRELPLTFGQGTKLEIK
3.24 nM	~0.4 µg/mL			Ab2 anti-PD-1 antibody (antibody, V domains shown, Humanized antibody, detected with anti-human IgG Fc) VH: QVQLQQSGAEVKKPGSSVKVSCKASGYTFTNYYLYWVRQAPGQGLEWIGGINPSNGGTNFNEKFRGRVTITADESSTTAYMELSSLRSEDTAFYFCTRRDYNYDGGFDYWGQGTTVTVSS VL: DIQMTQSPSSLSASVGDRVTITCRASKSVSTSGFNYMHWYQQTPGKAPKLLIYLASNLDSGVPSRFSGSGSGTDFTFTISSLQPEDIATYYCFHGRELPLTFGQGTKLQITR
2.3 nM	~0.3 µg/mL	0.68 nM		Ab7 anti-PD-1 antibody (antibody, V domains shown, Humanized antibody, detected with anti-human IgG Fc) VH: QVQLQQSGAEVKKPGSSVKVSCRASGYTFTNYYLYWVRQAPGQGLEWIGGINPSNGGTNFNEKFRGRVTITADESSTTAYMELSSLRSEDTAFYFCTRRDYNYDGGFDYWGQGTTVTVSS VL: DIVMTQSPSSLSASVGDRVTITCRASKSVSTSGFNYMHWYQQTPGKAPKLLIYLASNLDSGVPARFSGSGSGTDFTFTISSLQEEDIATYYCFHGRELPLTFGQGTKLQITR
